Assay results from the supplement of paper PMC11780869.

System: Bacillus subtilis
Assay: cleaved RNA product abundance (RNA/gDNA barcode ratio) relative to median wild-type variant (ratio to wild type); higher = more accumulation of the downstream cleavage product
Conditions: cleavage site: cggR-gapA (positions -7 to +36 mutated)
How it was run: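 Truncated aprE or tetM reporter mRNAs with barcoded RNase Y cleavage-site windows, mutagenized from oligos at a 9% error rate, sat in the B. subtilis chromosome. Cells grew in LB at 37°C from OD600 0.0003 to 0.3. Gel-selected cleaved RNA was reverse transcribed and its barcodes sequenced with those from genomic DNA, collapsing by UMI. Cleaved product abundance equals the RNA:gDNA barcode ratio per construct over the median construct with the unmutated site.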

[1] = experiment (reporter, strain, medium): exp 4a: truncated aprE reporter, strain BJT201 with 2% xylose (RNase J1 expressed)
[2] = experiment (reporter, strain, medium): exp 2b: truncated aprE reporter, strain BJT200
[3] = experiment (reporter, strain, medium): exp 6: tetM reporter, strain 168

Sequence	cleaved RNA product abundance [1]	cleaved RNA product abundance [2]	cleaved RNA product abundance [3]
ACAGACGAAGGAGCCGCAAAGAAGTTATTAAGGGATGAATAATTCCTCTATATAAATATCTCTCACTTATTTAAA	0.248	–	–
ACAGACGAAGGAGCCGCAAAGAAGTTATTAAGGGATGAATAATTCCTGAATATAAATATCTCTCACTTATTTAAA	0.471	–	–
ACAGACGAAGGAGCCGCAAAGAAGTTATTAAGGGATGAATAATTCGTCAATATAAATATCTCTCACTTATTTAAA	–	0.0726	–
ACAGACGAAGGAGCCGCAAAGAAGTTATTAAGGGATGAATAATTCTTCAATATAAATATCTCTCACTTATTTAAA	0.18	–	–
ACAGACGAAGGAGCCGCAAAGAAGTTATTAAGGGATGAATAATTGCTCAATATAAATATCTCTCACTTATTTAAA	0.0655	0.0946	–
ACAGACGAAGGAGCCGCAAAGAAGTTATTAAGGGATGAATAATTTCTCAATATAAATATCTCTCACTTATTTAAA	0.16	–	–
ACAGACGAAGGAGCCGCAAAGAAGTTATTAAGGGATGAATACTACCTCAATATAAATATCTCTCACTTATTTAAA	0.168	0.124	–
ACAGACGAAGGAGCCGCAAAGAAGTTATTAAGGGATGAATACTCACTCAATATAAATATCTCTCACTTATTTAAA	0.0953	–	–
ACAGACGAAGGAGCCGCAAAGAAGTTATTAAGGGATGAATACTCCATCAATATAAATATCTCTCACTTATTTAAA	0.137	0.102	0.152
ACAGACGAAGGAGCCGCAAAGAAGTTATTAAGGGATGAATACTCCCACAATATAAATATCTCTCACTTATTTAAA	0.139	–	–
ACAGACGAAGGAGCCGCAAAGAAGTTATTAAGGGATGAATACTCCCTAAATATAAATATCTCTCACTTATTTAAA	–	0.366	–
ACAGACGAAGGAGCCGCAAAGAAGTTATTAAGGGATGAATACTCCCTCAAAATAAATATCTCTCACTTATTTAAA	0.194	0.176	–
ACAGACGAAGGAGCCGCAAAGAAGTTATTAAGGGATGAATACTCCCTCAAGATAAATATCTCTCACTTATTTAAA	–	0.156	–
ACAGACGAAGGAGCCGCAAAGAAGTTATTAAGGGATGAATACTCCCTCAATAGAAATATCTCTCACTTATTTAAA	0.115	–	–
ACAGACGAAGGAGCCGCAAAGAAGTTATTAAGGGATGAATACTCCCTCAATATAAAAATCTCTCACTTATTTAAA	0.819	0.511	–
ACAGACGAAGGAGCCGCAAAGAAGTTATTAAGGGATGAATACTCCCTCAATATAAATATCTCTCACTTATTTAAA	0.732	0.565	0.566
ACAGACGAAGGAGCCGCAAAGAAGTTATTAAGGGATGAATACTCCCTCAATTTAAATATCTCTCACTTATTTAAA	0.167	–	–
ACAGACGAAGGAGCCGCAAAGAAGTTATTAAGGGATGAATACTCCCTCCATATAAATATCTCTCACTTATTTAAA	0.218	0.138	–
ACAGACGAAGGAGCCGCAAAGAAGTTATTAAGGGATGAATACTCCCTCTATATAAATATCTCTCACTTATTTAAA	0.259	0.275	–
ACAGACGAAGGAGCCGCAAAGAAGTTATTAAGGGATGAATACTCCCTTAATATAAATATCTCTCACTTATTTAAA	0.47	–	–
ACAGACGAAGGAGCCGCAAAGAAGTTATTAAGGGATGAATACTCCGTCAATATAAATATCTCTCACTTATTTAAA	0.126	–	–
ACAGACGAAGGAGCCGCAAAGAAGTTATTAAGGGATGAATACTCCTTCAATATAAATATCTCTCACTTATTTAAA	0.253	–	–
ACAGACGAAGGAGCCGCAAAGAAGTTATTAAGGGATGAATACTCTCTCAATATAAATATCTCTCACTTATTTAAA	0.226	–	–

Sequence	cleaved RNA product abundance [1]	cleaved RNA product abundance [2]	cleaved RNA product abundance [3]
ACAGACGAAGGAGCCGCAAAGAAGTTATTAAGGGATGAATACTGCCTCAATATAAATATCTCTCACTTATTTAAA	–	0.112	–
ACAGACGAAGGAGCCGCAAAGAAGTTATTAAGGGATGAATACTTCCTCAATATAAATATCTCTCACTTATTTAAA	0.247	0.156	–
ACAGACGAAGGAGCCGCAAAGAAGTTATTAAGGGATGAATAGTCCCTAAATATAAATATCTCTCACTTATTTAAA	0.547	–	–
ACAGACGAAGGAGCCGCAAAGAAGTTATTAAGGGATGAATAGTCCCTCAAAATAAATATCTCTCACTTATTTAAA	0.31	–	–
ACAGACGAAGGAGCCGCAAAGAAGTTATTAAGGGATGAATAGTCCCTCAATATAAAAATCTCTCACTTATTTAAA	1	–	–
ACAGACGAAGGAGCCGCAAAGAAGTTATTAAGGGATGAATAGTCCCTCAATATAAATATCTCTCACTTATTTAAA	0.857	0.912	1.25
ACAGACGAAGGAGCCGCAAAGAAGTTATTAAGGGATGAATAGTCCCTCATTATAAATATCTCTCACTTATTTAAA	0.235	–	–
ACAGACGAAGGAGCCGCAAAGAAGTTATTAAGGGATGAATAGTCCCTGAATATAAATATCTCTCACTTATTTAAA	0.334	–	–
ACAGACGAAGGAGCCGCAAAGAAGTTATTAAGGGATGAATAGTCCTTCAATATAAATATCTCTCACTTATTTAAA	0.359	–	–
ACAGACGAAGGAGCCGCAAAGAAGTTATTAAGGGATGAATATACCCTCAATATAAATATCTCTCACTTATTTAAA	0.485	–	–
ACAGACGAAGGAGCCGCAAAGAAGTTATTAAGGGATGAATATCCCCTCAATATAAATATCTCTCACTTATTTAAA	0.455	–	–
ACAGACGAAGGAGCCGCAAAGAAGTTATTAAGGGATGAATATGCCCTCAATATAAATATCTCTCACTTATTTAAA	0.363	–	–
ACAGACGAAGGAGCCGCAAAGAAGTTATTAAGGGATGAATATTCACTCAATATAAATATCTCTCACTTATTTAAA	0.18	–	–
ACAGACGAAGGAGCCGCAAAGAAGTTATTAAGGGATGAATATTCCATCAATATAAATATCTCTCACTTATTTAAA	0.312	0.141	–
ACAGACGAAGGAGCCGCAAAGAAGTTATTAAGGGATGAATATTCCCACAATATAAATATCTCTCACTTATTTAAA	0.178	0.177	–
ACAGACGAAGGAGCCGCAAAGAAGTTATTAAGGGATGAATATTCCCGCAATATAAATATCTCTCACTTATTTAAA	0.221	–	–
ACAGACGAAGGAGCCGCAAAGAAGTTATTAAGGGATGAATATTCCCTAAATATAAATATCTCTCACTTATTTAAA	0.462	–	–
ACAGACGAAGGAGCCGCAAAGAAGTTATTAAGGGATGAATATTCCCTCAAAATAAATATCTCTCACTTATTTAAA	0.224	0.231	–
ACAGACGAAGGAGCCGCAAAGAAGTTATTAAGGGATGAATATTCCCTCAAGATAAATATCTCTCACTTATTTAAA	0.243	0.254	–
ACAGACGAAGGAGCCGCAAAGAAGTTATTAAGGGATGAATATTCCCTCAATAAAAATATCTCTCACTTATTTAAA	0.156	–	–
ACAGACGAAGGAGCCGCAAAGAAGTTATTAAGGGATGAATATTCCCTCAATATAAATATCTCTCACTTATTTAAA	0.699	0.675	0.84
ACAGACGAAGGAGCCGCAAAGAAGTTATTAAGGGATGAATATTCCCTCAATATAAATCTCTCTCACTTATTTAAA	0.471	–	–
